Source: patent US9176064B2, “Bisubstrate fluorescent probes for protein kinase CK2” (University of Tartu, priority 2012, dated 2015)
Where a SMILES comes first, the peptide text is derived from it. [ ]: non-standard residue; d: D form. The star is where a group is joined. X1 = O=C(CCCCCCCn1cnc2c(Br)c(Br)c(Br)c(Br)c21)*

Columns and labels:
Assay in all cases: Kinase panel residual activity
Type in all cases: biochemical
Conditions in all cases: compound at 1 micromolar
[1] = target: T1, TAK1 (Homo sapiens, UniProt O43318)
T1 sequence (O43318 1-303 limits assumed): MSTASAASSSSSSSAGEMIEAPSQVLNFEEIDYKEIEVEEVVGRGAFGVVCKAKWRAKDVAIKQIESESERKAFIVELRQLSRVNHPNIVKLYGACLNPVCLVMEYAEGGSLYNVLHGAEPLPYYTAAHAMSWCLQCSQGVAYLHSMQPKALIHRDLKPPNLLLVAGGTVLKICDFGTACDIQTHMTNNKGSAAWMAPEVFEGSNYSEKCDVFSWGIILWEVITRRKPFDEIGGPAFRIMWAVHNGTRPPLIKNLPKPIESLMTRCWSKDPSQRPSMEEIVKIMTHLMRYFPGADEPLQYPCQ

[2] = target: T2, PKD1 (Homo sapiens, UniProt Q15139)
T2 sequence (Q15139 1-912): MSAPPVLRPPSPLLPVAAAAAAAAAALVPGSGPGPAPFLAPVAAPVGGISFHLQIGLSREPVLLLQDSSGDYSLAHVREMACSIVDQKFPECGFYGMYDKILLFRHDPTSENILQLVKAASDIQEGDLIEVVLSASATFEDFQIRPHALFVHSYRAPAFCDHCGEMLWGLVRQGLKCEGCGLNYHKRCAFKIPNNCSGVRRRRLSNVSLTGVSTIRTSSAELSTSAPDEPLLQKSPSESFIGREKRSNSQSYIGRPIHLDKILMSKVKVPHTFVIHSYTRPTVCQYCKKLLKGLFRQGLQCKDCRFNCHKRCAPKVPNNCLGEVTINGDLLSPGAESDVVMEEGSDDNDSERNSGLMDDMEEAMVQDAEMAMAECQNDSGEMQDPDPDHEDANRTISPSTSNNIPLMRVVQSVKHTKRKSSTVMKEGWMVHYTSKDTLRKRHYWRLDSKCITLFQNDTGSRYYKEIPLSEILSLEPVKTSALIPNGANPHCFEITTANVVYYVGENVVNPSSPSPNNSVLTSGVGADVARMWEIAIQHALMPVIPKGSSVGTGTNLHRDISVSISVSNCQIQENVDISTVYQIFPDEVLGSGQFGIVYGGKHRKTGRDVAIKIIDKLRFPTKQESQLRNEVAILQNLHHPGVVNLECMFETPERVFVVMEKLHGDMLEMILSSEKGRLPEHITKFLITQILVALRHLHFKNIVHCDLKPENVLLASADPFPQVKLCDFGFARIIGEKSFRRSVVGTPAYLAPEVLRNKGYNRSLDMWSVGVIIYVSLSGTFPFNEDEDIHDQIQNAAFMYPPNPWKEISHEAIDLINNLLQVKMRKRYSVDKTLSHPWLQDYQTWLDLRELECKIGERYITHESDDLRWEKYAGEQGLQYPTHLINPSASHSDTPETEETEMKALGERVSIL

[3] = target: MARK2 (Homo sapiens, UniProt Q7KZI7)
[4] = target: PIM2 (Homo sapiens, UniProt Q9P1W9)
PIM2, sequence (Q9P1W9 whole entry, species assumed): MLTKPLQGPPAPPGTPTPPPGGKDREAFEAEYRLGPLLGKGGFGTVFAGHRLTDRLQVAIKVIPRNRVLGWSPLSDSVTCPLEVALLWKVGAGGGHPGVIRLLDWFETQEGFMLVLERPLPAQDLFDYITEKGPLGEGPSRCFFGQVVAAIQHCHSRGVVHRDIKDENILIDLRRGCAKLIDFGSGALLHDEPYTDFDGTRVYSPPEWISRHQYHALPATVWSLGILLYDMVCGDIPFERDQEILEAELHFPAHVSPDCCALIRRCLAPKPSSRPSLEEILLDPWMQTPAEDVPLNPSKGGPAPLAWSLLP

[5] = target: T3, p38d MAPK (Homo sapiens, UniProt O15264)
T3 sequence (O15264 1-365): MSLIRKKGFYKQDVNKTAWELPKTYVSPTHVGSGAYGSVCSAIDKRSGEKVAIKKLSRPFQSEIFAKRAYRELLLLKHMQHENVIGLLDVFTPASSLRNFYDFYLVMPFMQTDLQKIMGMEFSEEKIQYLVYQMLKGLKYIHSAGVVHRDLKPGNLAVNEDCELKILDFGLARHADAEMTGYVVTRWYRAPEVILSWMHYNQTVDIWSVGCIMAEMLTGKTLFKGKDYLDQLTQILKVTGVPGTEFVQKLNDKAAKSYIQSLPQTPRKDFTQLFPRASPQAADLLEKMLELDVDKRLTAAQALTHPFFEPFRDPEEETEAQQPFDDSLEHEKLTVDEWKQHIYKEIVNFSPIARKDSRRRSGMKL

[6] = target: CLK2 (Homo sapiens, UniProt P49760)
CLK2, sequence (P49760 whole entry, species assumed): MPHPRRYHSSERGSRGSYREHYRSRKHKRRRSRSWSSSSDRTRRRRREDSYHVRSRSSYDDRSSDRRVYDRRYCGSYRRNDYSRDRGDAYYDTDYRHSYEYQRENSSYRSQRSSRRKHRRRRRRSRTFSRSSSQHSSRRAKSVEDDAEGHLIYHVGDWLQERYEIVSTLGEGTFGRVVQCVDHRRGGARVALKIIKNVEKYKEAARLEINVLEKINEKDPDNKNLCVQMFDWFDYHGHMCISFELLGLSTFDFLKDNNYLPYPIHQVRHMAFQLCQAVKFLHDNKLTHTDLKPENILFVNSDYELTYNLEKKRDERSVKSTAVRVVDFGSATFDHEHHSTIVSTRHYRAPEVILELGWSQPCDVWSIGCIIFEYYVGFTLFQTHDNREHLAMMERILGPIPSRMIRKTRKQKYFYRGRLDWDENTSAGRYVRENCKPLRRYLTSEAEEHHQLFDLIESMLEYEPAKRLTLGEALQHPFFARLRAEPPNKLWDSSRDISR

[7] = target: SmMLCK (Homo sapiens, UniProt Q15746)
[8] = target: IGF-1R (Homo sapiens, UniProt P08069)
IGF-1R, sequence (P08069 31-1367, species assumed): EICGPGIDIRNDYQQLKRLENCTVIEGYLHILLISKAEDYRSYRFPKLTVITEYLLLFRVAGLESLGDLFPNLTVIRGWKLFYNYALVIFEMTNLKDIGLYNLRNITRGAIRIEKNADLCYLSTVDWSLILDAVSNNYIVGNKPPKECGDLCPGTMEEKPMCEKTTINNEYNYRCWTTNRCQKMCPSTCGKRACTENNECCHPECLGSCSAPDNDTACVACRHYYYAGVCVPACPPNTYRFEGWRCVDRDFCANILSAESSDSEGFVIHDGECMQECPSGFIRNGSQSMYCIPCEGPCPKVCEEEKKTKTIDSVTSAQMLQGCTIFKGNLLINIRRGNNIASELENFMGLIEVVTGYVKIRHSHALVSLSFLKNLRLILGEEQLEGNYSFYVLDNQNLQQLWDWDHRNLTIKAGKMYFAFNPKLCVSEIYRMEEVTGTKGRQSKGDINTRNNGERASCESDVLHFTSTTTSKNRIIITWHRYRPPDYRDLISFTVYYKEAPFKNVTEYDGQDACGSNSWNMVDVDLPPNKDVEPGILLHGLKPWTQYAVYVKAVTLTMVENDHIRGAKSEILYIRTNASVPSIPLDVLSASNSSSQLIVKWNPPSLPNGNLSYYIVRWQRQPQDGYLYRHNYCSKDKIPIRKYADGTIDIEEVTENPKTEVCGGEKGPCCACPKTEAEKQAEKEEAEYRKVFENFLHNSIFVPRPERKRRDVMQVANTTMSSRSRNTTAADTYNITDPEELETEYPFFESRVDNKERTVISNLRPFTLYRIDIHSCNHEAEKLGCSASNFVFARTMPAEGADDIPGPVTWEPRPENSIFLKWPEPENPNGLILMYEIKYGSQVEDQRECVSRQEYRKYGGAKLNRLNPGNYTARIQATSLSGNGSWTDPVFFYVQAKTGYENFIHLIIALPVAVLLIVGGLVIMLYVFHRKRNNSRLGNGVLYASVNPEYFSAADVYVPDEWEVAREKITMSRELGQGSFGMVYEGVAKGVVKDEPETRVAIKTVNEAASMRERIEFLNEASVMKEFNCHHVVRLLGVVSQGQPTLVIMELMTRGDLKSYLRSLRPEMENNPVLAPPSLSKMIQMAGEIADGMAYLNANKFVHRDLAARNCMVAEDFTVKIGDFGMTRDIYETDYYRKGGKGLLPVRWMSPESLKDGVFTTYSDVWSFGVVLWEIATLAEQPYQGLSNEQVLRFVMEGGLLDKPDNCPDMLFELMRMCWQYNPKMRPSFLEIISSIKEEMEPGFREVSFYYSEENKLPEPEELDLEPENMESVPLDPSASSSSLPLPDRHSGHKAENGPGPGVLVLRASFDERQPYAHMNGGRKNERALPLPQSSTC

[9] = target: SIK2 (Homo sapiens, UniProt Q9H0K1)
[10] = target: T4, Aurora A (Homo sapiens, UniProt O14965)
T4 sequence (O14965 1-403): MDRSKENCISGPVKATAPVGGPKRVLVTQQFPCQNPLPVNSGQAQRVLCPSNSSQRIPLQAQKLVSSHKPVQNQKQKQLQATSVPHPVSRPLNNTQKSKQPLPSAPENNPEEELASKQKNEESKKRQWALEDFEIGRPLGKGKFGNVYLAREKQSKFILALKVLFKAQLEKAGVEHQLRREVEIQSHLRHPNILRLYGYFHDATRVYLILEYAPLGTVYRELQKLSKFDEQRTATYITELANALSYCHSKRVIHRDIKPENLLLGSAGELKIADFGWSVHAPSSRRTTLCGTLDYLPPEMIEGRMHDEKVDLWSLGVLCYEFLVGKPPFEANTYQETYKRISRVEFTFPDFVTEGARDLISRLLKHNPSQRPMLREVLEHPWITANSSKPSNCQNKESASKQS

[11] = target: JNK3 (Homo sapiens, UniProt P53779)
JNK3, sequence (P53779 whole entry, species assumed): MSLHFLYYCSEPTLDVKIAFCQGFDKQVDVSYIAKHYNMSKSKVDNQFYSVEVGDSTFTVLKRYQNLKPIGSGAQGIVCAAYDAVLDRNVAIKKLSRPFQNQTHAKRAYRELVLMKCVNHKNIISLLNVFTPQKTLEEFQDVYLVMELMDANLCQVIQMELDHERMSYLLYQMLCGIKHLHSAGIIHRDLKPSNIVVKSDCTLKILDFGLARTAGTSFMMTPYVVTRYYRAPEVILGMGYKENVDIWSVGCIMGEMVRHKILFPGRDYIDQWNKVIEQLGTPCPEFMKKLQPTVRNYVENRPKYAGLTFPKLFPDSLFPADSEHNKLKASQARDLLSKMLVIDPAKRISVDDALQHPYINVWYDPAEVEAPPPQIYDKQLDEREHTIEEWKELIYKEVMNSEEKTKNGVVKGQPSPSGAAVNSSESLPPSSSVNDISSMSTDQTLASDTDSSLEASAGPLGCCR

[12] = target: MKK2 (Homo sapiens, UniProt P36507)
MKK2, sequence (P36507 whole entry, species assumed): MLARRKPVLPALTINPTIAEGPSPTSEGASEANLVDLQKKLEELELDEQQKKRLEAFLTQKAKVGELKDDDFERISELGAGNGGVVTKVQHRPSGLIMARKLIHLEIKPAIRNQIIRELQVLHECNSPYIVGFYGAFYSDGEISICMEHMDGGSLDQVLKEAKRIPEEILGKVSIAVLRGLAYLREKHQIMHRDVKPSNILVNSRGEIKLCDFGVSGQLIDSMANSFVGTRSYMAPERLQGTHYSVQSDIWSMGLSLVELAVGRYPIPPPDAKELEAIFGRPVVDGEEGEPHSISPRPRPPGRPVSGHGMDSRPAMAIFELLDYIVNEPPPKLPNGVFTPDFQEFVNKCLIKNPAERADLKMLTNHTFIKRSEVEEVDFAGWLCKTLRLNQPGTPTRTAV

[13] = target: EF2K (Homo sapiens, UniProt O00418)
EF2K, sequence (O00418 whole entry): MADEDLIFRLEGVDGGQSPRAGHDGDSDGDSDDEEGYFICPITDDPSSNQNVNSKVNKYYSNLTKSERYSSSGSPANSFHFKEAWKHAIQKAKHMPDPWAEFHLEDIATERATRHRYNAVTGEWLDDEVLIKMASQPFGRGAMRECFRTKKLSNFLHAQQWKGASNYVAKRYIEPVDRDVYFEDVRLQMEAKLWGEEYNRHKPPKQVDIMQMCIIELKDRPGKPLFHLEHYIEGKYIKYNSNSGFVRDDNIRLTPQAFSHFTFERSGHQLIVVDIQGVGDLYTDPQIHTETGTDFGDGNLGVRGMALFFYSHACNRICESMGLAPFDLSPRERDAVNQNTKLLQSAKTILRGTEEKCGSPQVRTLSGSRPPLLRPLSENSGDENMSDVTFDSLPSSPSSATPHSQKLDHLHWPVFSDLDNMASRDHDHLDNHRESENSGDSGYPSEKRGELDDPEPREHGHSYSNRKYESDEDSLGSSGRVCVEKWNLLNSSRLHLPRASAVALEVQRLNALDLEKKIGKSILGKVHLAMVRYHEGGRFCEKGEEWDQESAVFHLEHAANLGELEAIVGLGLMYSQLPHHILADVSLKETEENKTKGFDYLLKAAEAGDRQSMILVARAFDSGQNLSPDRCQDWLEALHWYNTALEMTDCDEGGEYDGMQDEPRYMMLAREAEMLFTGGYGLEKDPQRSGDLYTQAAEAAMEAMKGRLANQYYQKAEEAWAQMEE

[14] = target: IRR (Homo sapiens, UniProt P14616)
IRR, sequence (P14616 27-1297, species assumed): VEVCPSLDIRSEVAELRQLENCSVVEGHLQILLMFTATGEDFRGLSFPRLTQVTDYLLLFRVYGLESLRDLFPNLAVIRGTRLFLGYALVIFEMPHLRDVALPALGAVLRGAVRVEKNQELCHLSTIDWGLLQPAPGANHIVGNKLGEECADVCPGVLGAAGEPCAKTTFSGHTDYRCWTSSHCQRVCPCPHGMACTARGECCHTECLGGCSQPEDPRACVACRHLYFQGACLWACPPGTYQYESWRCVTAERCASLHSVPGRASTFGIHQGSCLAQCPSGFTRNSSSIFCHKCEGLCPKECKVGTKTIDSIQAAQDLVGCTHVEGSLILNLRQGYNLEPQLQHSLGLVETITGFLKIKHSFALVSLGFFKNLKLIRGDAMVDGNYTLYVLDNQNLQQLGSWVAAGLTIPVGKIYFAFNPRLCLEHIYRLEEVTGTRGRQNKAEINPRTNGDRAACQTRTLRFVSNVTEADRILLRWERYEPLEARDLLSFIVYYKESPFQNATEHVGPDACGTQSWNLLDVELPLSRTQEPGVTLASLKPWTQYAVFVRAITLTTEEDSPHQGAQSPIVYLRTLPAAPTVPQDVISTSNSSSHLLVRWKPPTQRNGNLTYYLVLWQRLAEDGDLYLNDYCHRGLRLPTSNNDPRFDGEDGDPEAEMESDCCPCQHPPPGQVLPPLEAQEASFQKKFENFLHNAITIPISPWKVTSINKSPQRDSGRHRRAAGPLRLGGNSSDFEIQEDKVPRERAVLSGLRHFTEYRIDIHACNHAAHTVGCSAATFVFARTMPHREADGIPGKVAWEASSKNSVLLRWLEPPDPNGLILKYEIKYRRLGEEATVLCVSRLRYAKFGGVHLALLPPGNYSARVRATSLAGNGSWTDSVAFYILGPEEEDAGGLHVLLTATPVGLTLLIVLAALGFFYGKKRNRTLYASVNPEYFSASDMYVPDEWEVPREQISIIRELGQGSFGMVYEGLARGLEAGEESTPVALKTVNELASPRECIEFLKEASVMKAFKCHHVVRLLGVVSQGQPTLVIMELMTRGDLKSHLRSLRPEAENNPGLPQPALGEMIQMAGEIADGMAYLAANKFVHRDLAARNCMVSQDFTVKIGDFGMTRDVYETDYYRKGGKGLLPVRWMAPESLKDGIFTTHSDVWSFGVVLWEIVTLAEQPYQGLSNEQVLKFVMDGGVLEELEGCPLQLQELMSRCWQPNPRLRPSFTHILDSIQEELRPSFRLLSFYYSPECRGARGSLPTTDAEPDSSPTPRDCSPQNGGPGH

SMILES: NCCCC[C@H](NC(=O)[C@H](CC(=O)O)NC(=O)[C@H](CC(=O)O)NC(=O)[C@H](CC(=O)O)NC(=O)[C@H](CC(=O)O)NC(=O)[C@H](CC(=O)O)NC(=O)[C@@H](CC(=O)O)NC(=O)CCCCCCCn1cnc2c(Br)c(Br)c(Br)c(Br)c21)C(=O)O [TBBI-OcA-(D-Asp)-(L-Asp)5-(L-Lys)-OH] (X1-[dD]DDDDDK-OH)
- remaining activity at 1 µM [1]: 62%
- remaining activity at 1 µM [2]: 72%
- remaining activity at 1 µM [3]: 66%
- remaining activity at 1 µM [4]: 92%
- remaining activity at 1 µM [5]: 93%
- remaining activity at 1 µM [6]: 24%
- remaining activity at 1 µM [7]: 96%
- remaining activity at 1 µM [8]: 116%
- remaining activity at 1 µM [9]: 74%
- remaining activity at 1 µM [10]: 118%
- remaining activity at 1 µM [11]: 85%
- remaining activity at 1 µM [12]: 66%
- remaining activity at 1 µM [13]: 80%
- remaining activity at 1 µM [14]: 55%
